From article PMC5464678 (The Journal of Physical Chemistry Letters, 2017)

Target: T1, Cnu (UniProt P64467 1-71)
T1 sequence (looked up): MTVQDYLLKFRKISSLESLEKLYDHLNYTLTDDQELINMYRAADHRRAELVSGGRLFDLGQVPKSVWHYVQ
Experiment: fluorescence polarisation; tryptophan fluorescence anisotropy of Cnu, titrated with H-NS(1-59) at select temperatures (278 to 310 K); apparent dissociation constants from fits assuming a 1:1 binding equilibrium
Settings: both partners purified

B1: H-NS_(1–59) (domain or fragment, UniProt P0ACF8 1-59, looked up)
chain: MSEALKILNNIRTLRAQARECTLETLEEMLEKLEVVVNERREEESAAAAEVEERTRKLQ
B1 was tested, and the “fold decrease of binding affinity, 310 K against 278 K” value was about 5 fold.
